Measurements from PMC11741300.
Like-named read-outs stand apart in the source and are kept apart here.

Assays:
PARP1 (unlabeled) [1] = target: T1, PARP1 (unlabeled) (Homo sapiens, UniProt P09874 1-1014); experiment: mass photometry
PARP1 (unlabeled) [2] = target: T1, PARP1 (unlabeled); experiment: mass photometry; remark: listed apart in the source
PARP1 (unlabeled) [3] = target: T1, PARP1 (unlabeled); experiment: mass photometry; remark: listed apart in the source
Cy3-PARP1 [4] = target: T2, Cy3-PARP1 (Homo sapiens, UniProt P09874 1-1014); experiment: smTIRFM
Cy3-PARP1 [5] = target: T2, Cy3-PARP1; experiment: smTIRFM; remark: listed apart in the source
Cy3-PARP1 [6] = target: T2, Cy3-PARP1; experiment: smTIRFM; remark: listed apart in the source
Cy3-PARP1 [7] = target: T2, Cy3-PARP1; experiment: smTIRFM; remark: listed apart in the source

T1 sequence (P09874 whole entry): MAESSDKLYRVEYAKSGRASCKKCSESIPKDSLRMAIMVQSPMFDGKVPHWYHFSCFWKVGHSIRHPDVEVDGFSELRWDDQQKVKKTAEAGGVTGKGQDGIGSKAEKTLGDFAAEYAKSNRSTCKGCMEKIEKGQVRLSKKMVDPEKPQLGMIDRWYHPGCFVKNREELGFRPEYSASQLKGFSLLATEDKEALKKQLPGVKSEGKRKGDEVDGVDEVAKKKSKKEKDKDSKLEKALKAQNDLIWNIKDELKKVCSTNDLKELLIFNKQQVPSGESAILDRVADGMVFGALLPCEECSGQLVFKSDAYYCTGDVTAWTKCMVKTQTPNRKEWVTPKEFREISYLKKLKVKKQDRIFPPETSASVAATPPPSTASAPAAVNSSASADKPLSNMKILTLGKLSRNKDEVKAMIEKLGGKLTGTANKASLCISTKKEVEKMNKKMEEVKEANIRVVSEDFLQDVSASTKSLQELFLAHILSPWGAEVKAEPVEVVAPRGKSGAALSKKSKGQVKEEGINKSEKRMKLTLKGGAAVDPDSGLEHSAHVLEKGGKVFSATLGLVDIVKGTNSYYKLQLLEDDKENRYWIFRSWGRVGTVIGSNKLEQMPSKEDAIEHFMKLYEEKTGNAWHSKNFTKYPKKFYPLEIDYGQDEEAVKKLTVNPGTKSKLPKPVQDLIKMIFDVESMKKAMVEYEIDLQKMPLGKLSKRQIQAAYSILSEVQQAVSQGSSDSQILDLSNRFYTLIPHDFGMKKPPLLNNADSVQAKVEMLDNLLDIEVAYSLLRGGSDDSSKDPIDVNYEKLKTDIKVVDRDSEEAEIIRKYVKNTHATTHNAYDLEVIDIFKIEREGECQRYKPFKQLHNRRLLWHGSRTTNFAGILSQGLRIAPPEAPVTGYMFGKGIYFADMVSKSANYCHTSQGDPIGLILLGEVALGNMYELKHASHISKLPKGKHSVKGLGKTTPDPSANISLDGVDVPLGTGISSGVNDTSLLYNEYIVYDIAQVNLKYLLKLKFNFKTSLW
T2 sequence (P09874 whole entry): as above

B1: cKITG4-PT (MP) (structured_DNA)
DNA: CATGTAGTCACTATGATTAGGCATAGTGACTACATGGGGCGGGCGCGAGGGAGGGGAGGATCTAATGCATTAAGTTCGCTTAATGCATTAGAT
PARP1 (unlabeled) [1]
  binding result: binds

B2: nicked (MP) (structured_DNA)
DNA: CATGTAGTCACTATGAGGCATAGTGACTACATGATCTAATGCATTAAGTTCCTTAATGCATTAGAT
PARP1 (unlabeled) [2]
  binding result: binds

B3: ssDNA (dT)90 (MP) (ssDNA)
DNA: TTTTTTTTTTTTTTTTTTTTTTTTTTTTTTTTTTTTTTTTTTTTTTTTTTTTTTTTTTTTTTTTTTTTTTTTTTTTTTTTTTTTTTTTTT
PARP1 (unlabeled) [3]
  binding result: no binding

B4: dsDNA (smTIRFM) (dsDNA)
DNA 1: CATGTAGTCACTATGCTACTGTG
DNA 2: CACAGTAGCATAGTGACTACATG
modifications: 3' biotin on strand 1
Cy3-PARP1 [4]
  binding result: binds

## TGGGTGGGTAGGGTGGGTTT (structured_DNA, 3' biotin) [cMYCG4]
Cy3-PARP1 [5]
  binding result: binds

B5: nicked (smTIRFM) (structured_DNA)
DNA 1: TGGCGACGGCAGCGAGGCTCTAATGCATTAAGTTCCTTAATGCATTAGA
DNA 2: GCCTCGCTGCCGTCGCCA
modifications: 3' biotin on strand 2
Cy3-PARP1 [6]
  Kd: 3.96 ± 0.2 nM
Cy3-PARP1 [7]
  Kd: 2.67 ± 0.16 nM

B6: cKITG4-PT (smTIRFM) (structured_DNA)
DNA 1: TGGCGACGGCAGCGAGGCGGGCGGGCGCGAGGGAGGGGAGGTCTAATGCATTAAGTTCCTTAATGCATTAGA
DNA 2: GCCTCGCTGCCGTCGCCA
modifications: 3' biotin on strand 2
Cy3-PARP1 [6]
  Kd: 3.24 ± 0.09 nM

## GGGCGGGCGCGAGGGAGGGGAGG (structured_DNA, 3' biotin) [cKITG4 (smTIRFM)]
Cy3-PARP1 [6]
  Kd: 0.04 ± 0.002 nM
